Data reported in patent publication US20020102257A1 (published 2002).

B1: humanized 1129 antibody (CDR-grafted MAb 1129, human COR VH / K102 VL frameworks, human IgG1 kappa) (antibody, V domains shown)
VH: QVTLRESGPALVKPTQTLTLTCTFSGFSLSTSGMSVGWIRQPPGKALEWLADIWWDDKKDYNPSLKSRLTISKDTSKNQVVLKVTNMDPADTATYYCARSMITNWYFDVWGAGTTVTVSS
VL: DIQMTQSPSTLSASVGDRVTITCKCQLSVGYMHWYQQKPGKAPKLWIYDTSKLASGVPSRFSGSGSGTEFTLTISSLQPDDFATYYCFQGSGYPFTFGGGTKLEIK
B2: humanized 1308F antibody (CDR-grafted MAb 1308F, human HV3 VH / K102 VL frameworks, human IgG1 kappa) (antibody, V domains shown)
VH: QVQLVQSGAEVKKPGASVKVSCKASGFNIKDYYIYWVRQAPGQGLEWIGWIDPENGNTVFDPKFNGRVTMTRDTSTSTVYMELSSLRSEDTAVYYCAYYGTSSFDFWGQGTTLTVSS
VL: DIQMTQSPSTLSASVGDRVTITCKASQDINRYLNWYQQKPGKAPKLLIYRANRLVDGVPSRFSGSGSGTEFTLTISSLQPDDFATYYCLQFHEFPYTFGGGTKLEIL
B3: murine monoclonal antibody MAb 1308F (antibody, V domains shown)
VH: EVQKQQSGAELVRPGALVKLSCKASGFNIKDYYIYWVKQRPEQGLEWIGWIDPENGNTVFDPLFQGKASITSDTSSNTAYLQLSSLTSEDTAVYYCAYYGTSSFDFWGQGTTLTVSS
VL: DIKMTQSPSSMYVSLGERVTITCKASQDINRYLNWFQQKPGKSPKTLIHRANRLVDGVPSRFSGSGSGQEYSLTISSLEFEDMGIYYCLQFHEFPYTFGGGTKLEIL

Columns and labels:
[1] = target: RSV F protein, C-terminal truncated, secreted from recombinant baculovirus (respiratory syncytial virus) (UniProt P03420); assay: SPR (BIAcore), F protein amine-coupled, Kd = kd/ka
[2] = target: RSV F protein, C-terminal truncated, secreted from recombinant baculovirus (respiratory syncytial virus) (UniProt P03420); assay: SPR (BIAcore), F protein amine-coupled, Mab injected 25-300 nM
[3] = target: T1, RSV F protein, C-terminal truncated, secreted from recombinant baculovirus (respiratory syncytial virus, UniProt P03420 26-524); assay: as above
T1 construct: also called RSV F glycoprotein; RSV F antigen

| Molecule | Kd [1] [nM] | kon [2] [M⁻¹ s⁻¹] | t1/2 [2] [h] | koff [2] [s⁻¹] | t1/2 [3] [h] |
| --- | --- | --- | --- | --- | --- |
| murine monoclonal antibody MAb 1129 | 11.4 | 35000 | 0.48 |  |  |
| chimeric 1129 antibody (murine 1129 VH and VL joined to human C-gamma 1 and C-kappa) | 1.5 | 50000 | 2.6 | 7.5e-05 |  |
| B1 |  |  |  |  | 2.8 |
| B2 |  |  |  |  | 3.5 |
| B3 |  |  |  |  | 5.1 |
